According to patent publication US20230099801A1, “RESTORATION OF T CELL ACTIVITY VIA THE CD39/CD73 AXIS” (INNATE PHARMA, priority 2017, published 2023):
“Also recorded” adds a separate entry of the source.

Columns and labels:
[1] = molecular target: T1, CHO cells expressing human CD39 (CHO-huCD39) (Homo sapiens, UniProt P49961); assay: Antibody titration on CHO-huCD39 cells by flow cytometry; type: binding
T1 construct: expressed in transfected cells; host or cells: CHO cells
T1 sequence (P49961 1-510): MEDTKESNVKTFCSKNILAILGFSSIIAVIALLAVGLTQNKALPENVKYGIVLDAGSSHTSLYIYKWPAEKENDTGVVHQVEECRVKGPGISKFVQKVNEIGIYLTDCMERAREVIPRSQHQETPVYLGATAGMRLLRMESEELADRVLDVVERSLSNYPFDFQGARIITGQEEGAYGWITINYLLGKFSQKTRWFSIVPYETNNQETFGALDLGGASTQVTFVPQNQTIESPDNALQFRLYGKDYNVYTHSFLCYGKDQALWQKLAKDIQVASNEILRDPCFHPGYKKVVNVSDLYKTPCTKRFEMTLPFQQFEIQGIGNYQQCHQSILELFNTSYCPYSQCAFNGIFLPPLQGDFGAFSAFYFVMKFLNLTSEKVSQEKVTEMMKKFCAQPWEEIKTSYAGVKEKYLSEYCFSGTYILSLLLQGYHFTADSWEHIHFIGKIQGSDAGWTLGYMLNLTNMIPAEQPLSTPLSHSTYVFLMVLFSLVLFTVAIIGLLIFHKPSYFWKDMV
Method: Cells were incubated with various concentration of unlabeled anti-CD39 antibody from 30 μg/ml to 5×10^−4 μg/ml, for 30 minutes at 4° C. After washes, cells were incubated with Goat anti-mouse H+L labeled secondary antibody for 30 min at 4° C.

CD8 T cells = assay: T cell proliferation assay in presence of added ATP, CD8 T cells; type: cell-based, human
Method: Peripheral blood from healthy donors was obtained from EFS, and mononuclear cells were isolated on a Ficoll gradient. Lymphocytes were further enriched on a 52% Percoll gradient by collection of the cell pellets and stained with a Cell Trace dye (Thermofisher) following the TDS provided by the manufacturer. […] Inhibition of T cell proliferation was achieved by addition of ATP (200 μM). T cell proliferation and ability of Abs to block immune suppressive effect of AMP were assessed by flow cytometry by quantifying the dye dilution in the proliferating T cell subset.
Percentage of proliferating T cells vs. anti-CD73 Ab concentration is plotted in graphs using GraphPad Prism software.

allogenic CD4 T cells = assay: Mixed lymphocytes reaction (MLR) of ATP-activated MoDC with allogenic CD4 T cells; type: cell-based, human; settings: MoDC activated in presence of ATP
Method: Briefly, human monocytes were purified from human healthy blood and differentiated into MoDC in presence of GM-CSF and IL-4 during 6 days. Then MoDC were activated in presence of ATP (Sigma, 0.25-1 mM) during 24 hours and DC activation were assessed by analyzing CD80, CD83 and HLA-DR expression by flow cytometry. […] LPS (Invivogen, 10 ng/ml) was used as positive control. To assess resulting effect of ATP-mediated DC activation on CD4 T cells activation, ATP-activated DC were washed and then incubated with allogenic CD4 T cells (ratio 1 MoDC/4 T cells) for a mixed lymphocytes reaction (MLR) during 5 days. T cells activation and proliferation were analyzed through CD25 expression and Cell Trace Violet dilution by flow cytometry (FIG. 8).

human CD39 = molecular target: T2, human CD39 (Homo sapiens, UniProt P49961); assay: ELISA titration on recombinant human CD39; type: binding
T2 sequence (P49961 1-510): T1 sequence (P49961 1-510)
Method: (§1) Wells were washed in TBS Tween 20, and further saturated 2H at RT in TBS Blocking buffer. Dose range concentration of primary antibody was incubated in TBS blocking buffer for 2h at RT. Wells were washed in TBS Tween 20. […] Optical density was measured on Enspire™ at OD=450.

[2] = molecular target: T3, Human CD39-L4 (NTPDase5, ENTPD5) (Homo sapiens, UniProt O75356); assay: ELISA titration on CD39-L4; type: binding
T3 sequence (O75356 25-428): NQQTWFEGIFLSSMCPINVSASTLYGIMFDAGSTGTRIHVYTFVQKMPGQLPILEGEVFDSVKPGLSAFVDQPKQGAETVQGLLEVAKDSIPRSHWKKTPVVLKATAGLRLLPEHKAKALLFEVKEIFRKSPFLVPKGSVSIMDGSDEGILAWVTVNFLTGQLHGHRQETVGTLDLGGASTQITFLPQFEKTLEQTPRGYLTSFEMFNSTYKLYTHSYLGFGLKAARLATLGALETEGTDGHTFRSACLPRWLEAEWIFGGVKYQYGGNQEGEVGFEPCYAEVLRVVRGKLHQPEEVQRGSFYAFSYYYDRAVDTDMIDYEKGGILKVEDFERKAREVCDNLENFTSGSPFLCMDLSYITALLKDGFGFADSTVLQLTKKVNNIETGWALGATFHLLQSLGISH
Method: as §1

[3] = molecular target: T4, Human CD39-L1 (NTPDase2, ENTPD2) (Homo sapiens, UniProt Q9Y5L3); assay: ELISA titration on CD39-L1; type: binding
T4 sequence (Q9Y5L3 1-472 isoform Q9Y5L3-2): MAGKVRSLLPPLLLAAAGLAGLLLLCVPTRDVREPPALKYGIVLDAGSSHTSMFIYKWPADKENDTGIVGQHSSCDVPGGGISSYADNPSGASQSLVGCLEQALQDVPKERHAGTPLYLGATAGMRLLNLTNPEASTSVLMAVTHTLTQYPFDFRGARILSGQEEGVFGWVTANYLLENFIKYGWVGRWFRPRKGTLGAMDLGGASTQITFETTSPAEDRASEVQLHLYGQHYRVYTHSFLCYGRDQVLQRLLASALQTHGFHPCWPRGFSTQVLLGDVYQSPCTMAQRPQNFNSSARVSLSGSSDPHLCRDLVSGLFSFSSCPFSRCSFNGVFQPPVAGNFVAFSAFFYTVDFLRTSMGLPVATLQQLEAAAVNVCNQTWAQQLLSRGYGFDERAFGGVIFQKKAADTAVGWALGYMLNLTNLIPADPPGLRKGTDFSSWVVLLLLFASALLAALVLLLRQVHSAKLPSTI
Method: as §1

B1: I-394: anti-CD39 antibody, VH SEQ ID NO: 6, VL SEQ ID NO: 7; heavy/light chains SEQ ID NOS: 52 and 53 (antibody)
heavy: EVQLQQSGPELVKPGASVKMSCKASGYTFTDYNMHWVKQSHGRTLEWIGYIVPLNGGSTFNQKFKGRATLTVNTSSRTAYMELRSLTSEDSAAYYCARGGTRFAYWGQGTLVTVSAASTKGPSVFPLAPSSKSTSGGTAALGCLVKDYFPEPVTVSWNSGALTSGVHTFPAVLQSSGLYSLSSVVTVPSSSLGTQTYICNVNHKPSNTKVDKRVEPKSCDKTHTCPPCPAPEAEGAPSVFLFPPKPKDTLMISRTPEVTCVVVDVSHEDPEVKFNWYVDGVEVHNAKTKPREEQYNSTYRVVSVLTVLHQDWLNGKEYKCKVSNKALPSSIEKTISKAKGQPREPQVYTLPPSREEMTKNQVSLTCLVKGFYPSDIAVEWESNGQPENNYKTTPPVLDSDGSFFLYSKLTVDKSRWQQGNVFSCSVMHEALHNHYTQKSLSLSPGK
light: DIVLTQSPASLAVSLGQRATISCRASESVDNFGVSFMYWFQQKPGQPPNLLIYGASNQGSGVPARFRGSGSGTDFSLNIHPMEADDTAMYFCQQTKEVPYTFGGGTKLEIKRTVAAPSVFIFPPSDEQLKSGTASVVCLLNNFYPREAKVQWKVDNALQSGNSQESVTEQDSKDSTYSLSSTLTLSKADYEKHKVYACEVTHQGLSSPVTKSFNRGEC
modifications: Chimeric homo sapiens mus musculus
Q: How did the “binding to cells expressing human CD39” value [1] turn out when B1 was run?
A: Its value is “bound; also recorded: binds”.

Q: What about the “potentiation of anti-CD73 antibodies in restoring CD8 T cell proliferation” value (CD8 T cells; added ATP 200 μM) of the same molecule?
A: The value was “strongly potentiation”.

Q: What about the “enhancement of CD8 T cell proliferation, alone without anti-CD73” value (CD8 T cells; concentrations of 0.1 μg/ml and 1 μg/ml, added ATP) of the same molecule?
A: Its value is “remarkable enhancement”.

Q: What about the “T cell proliferation and activation (CD25 expression, Cell Trace Violet dilution) in MLR” value (allogenic CD4 T cells) of the same molecule?
A: The value was “higher T cell proliferation and activation”.

Q: And the “binding to human CD39 in ELISA” value (human CD39)?
A: Its value is “bound; also recorded: binds”.

Q: And the “binding to CD39-L4 in ELISA” value [2]?
A: The value was “not to any of the human isoforms”.

Q: What about the “binding to CD39-L1 in ELISA” value [3] of the same molecule?
A: Its value is “not to any of the human isoforms”.
